The target in experiment [1] is GFOGER peptide, synthetic triple helical collagen related peptide GPC[GPP]5GFOGER[GPP]5GPCG. As to the kind of experiment: dynamic force spectroscopy (AFM); as a1, repeated over a range of loading rates; most dominant peak force against loading rate fitted with the Bell-Evans model; koff at zero applied force. The following applies: both partners purified.
The target in experiment [2] is GPP peptide, synthetic triple helical control peptide GPC[GPP]10GPCG. The experiment is described as above. Particulars: both partners purified.

One may read the koff as a measure of how fast the partners let go of each other. A higher koff goes with a short-lived complex.

B1: I-domain from integrin alpha 2 beta 1, locked open I-domain cleaved of its GST tag (CLOI) (domain or fragment)
chain: CPSLIDVVVVCDESNSIYPWDAVKNFLEKFVQGLDIGPTKTQVGLIQYANNPRVVFNLNTYKTKEEMIVATSQTSQYGGDLTNTFGAIQYARKYAYSAASGGRRSATKVMVVVTDGESHDGSMLKAVIDQCNHDNILRFGIAVLGYLNRNALDTKNLIKEIKAIASIPTERYFFNVSDEAALLEKAGTLGEQIFSIEG
B1: the figures for the koff in experiment [1] and in experiment [2] were 0.44 s⁻¹ and 11 s⁻¹, respectively.

Source of the values: paper PMC3588017, “Measurement of the Interaction Between Recombinant I-domain from Integrin alpha 2 beta 1 and a Triple Helical Collagen Peptide with the GFOGER Binding Motif Using Molecular Force Spectroscopy” (International Journal of Molecular Sciences, 2013).
